The chains are these.
B1: GPIbα D235Y, full-length, on transfected HEK-293T cells (receptor)
chain: HPICEVSKVASHLEVNCDKRNLTALPPDLPKDTTILHLSENLLYTFSLATLMPYTRLTQLNLDRCELTKLQVDGTLPVLGTLDLSHNQLQSLPLLGQTLPALTVLDVSFNRLTSLPLGALRGLGELQELYLKGNELKTLPPGLLTPTPKLEKLSLANNNLTELPAGLLNGLENLDTLLLQENSLYTIPKGFFGSHLLPFAFLHGNPWLCNCEILYFRRWLQDNAENVYVWKQGVYVKAMTSNVASVQCDNSDKFPVYKYPGKGCPTLGDEGDTDLYDYYPEEDTEGDKVRATRTVVKFPTKAHTTPWGLFYSWSTASLDSQMPSSLHPTQESTKEQTTFPPRWTPNFTLHMESITFSKTPKSTTEPTPSPTTSEPVPEPAPNMTTLEPTPSPTTPEPTSEPAPSPTTPEPTSEPAPSPTTPEPTPIPTIATSPTILVSATSLITPKSTFLTTTKPVSLLESTKKTIPELDQPPKLRGVLQGHLESSRNDPFLHPDFCCLLPLGFYVLGLFWLLFASVVLILLLSWVGHVKPQALDSGQGAALTTATQTTHLELQRGRQVTVPRAWLLFLRGSLPTFRSSLFLWVRPNGRVGPLVAGRRPSALSQGRGQDLLSTVSIRYSGHSL
notes: Some cells were also transfected with GPIbβ and GP-IX; also called single mutation D235Y
B2: GPIbα G233V/M239V, full-length, on transfected HEK-293T cells (GPIbα alone in Table 2) (receptor)
chain: HPICEVSKVASHLEVNCDKRNLTALPPDLPKDTTILHLSENLLYTFSLATLMPYTRLTQLNLDRCELTKLQVDGTLPVLGTLDLSHNQLQSLPLLGQTLPALTVLDVSFNRLTSLPLGALRGLGELQELYLKGNELKTLPPGLLTPTPKLEKLSLANNNLTELPAGLLNGLENLDTLLLQENSLYTIPKGFFGSHLLPFAFLHGNPWLCNCEILYFRRWLQDNAENVYVWKQVVDVKAVTSNVASVQCDNSDKFPVYKYPGKGCPTLGDEGDTDLYDYYPEEDTEGDKVRATRTVVKFPTKAHTTPWGLFYSWSTASLDSQMPSSLHPTQESTKEQTTFPPRWTPNFTLHMESITFSKTPKSTTEPTPSPTTSEPVPEPAPNMTTLEPTPSPTTPEPTSEPAPSPTTPEPTSEPAPSPTTPEPTPIPTIATSPTILVSATSLITPKSTFLTTTKPVSLLESTKKTIPELDQPPKLRGVLQGHLESSRNDPFLHPDFCCLLPLGFYVLGLFWLLFASVVLILLLSWVGHVKPQALDSGQGAALTTATQTTHLELQRGRQVTVPRAWLLFLRGSLPTFRSSLFLWVRPNGRVGPLVAGRRPSALSQGRGQDLLSTVSIRYSGHSL
notes: also called double mutation G233V/M239V
B3: GPIbα G233V/D235Y/M239V, full-length, on transfected HEK-293T cells (receptor)
chain: HPICEVSKVASHLEVNCDKRNLTALPPDLPKDTTILHLSENLLYTFSLATLMPYTRLTQLNLDRCELTKLQVDGTLPVLGTLDLSHNQLQSLPLLGQTLPALTVLDVSFNRLTSLPLGALRGLGELQELYLKGNELKTLPPGLLTPTPKLEKLSLANNNLTELPAGLLNGLENLDTLLLQENSLYTIPKGFFGSHLLPFAFLHGNPWLCNCEILYFRRWLQDNAENVYVWKQVVYVKAVTSNVASVQCDNSDKFPVYKYPGKGCPTLGDEGDTDLYDYYPEEDTEGDKVRATRTVVKFPTKAHTTPWGLFYSWSTASLDSQMPSSLHPTQESTKEQTTFPPRWTPNFTLHMESITFSKTPKSTTEPTPSPTTSEPVPEPAPNMTTLEPTPSPTTPEPTSEPAPSPTTPEPTSEPAPSPTTPEPTPIPTIATSPTILVSATSLITPKSTFLTTTKPVSLLESTKKTIPELDQPPKLRGVLQGHLESSRNDPFLHPDFCCLLPLGFYVLGLFWLLFASVVLILLLSWVGHVKPQALDSGQGAALTTATQTTHLELQRGRQVTVPRAWLLFLRGSLPTFRSSLFLWVRPNGRVGPLVAGRRPSALSQGRGQDLLSTVSIRYSGHSL
notes: Some cells were also transfected with GPIbβ and GP-IX; also called triple mutation; triple GPIbα mutation
B4: GPIbα G233V, full-length, on transfected HEK-293T cells (receptor)
chain: HPICEVSKVASHLEVNCDKRNLTALPPDLPKDTTILHLSENLLYTFSLATLMPYTRLTQLNLDRCELTKLQVDGTLPVLGTLDLSHNQLQSLPLLGQTLPALTVLDVSFNRLTSLPLGALRGLGELQELYLKGNELKTLPPGLLTPTPKLEKLSLANNNLTELPAGLLNGLENLDTLLLQENSLYTIPKGFFGSHLLPFAFLHGNPWLCNCEILYFRRWLQDNAENVYVWKQVVDVKAMTSNVASVQCDNSDKFPVYKYPGKGCPTLGDEGDTDLYDYYPEEDTEGDKVRATRTVVKFPTKAHTTPWGLFYSWSTASLDSQMPSSLHPTQESTKEQTTFPPRWTPNFTLHMESITFSKTPKSTTEPTPSPTTSEPVPEPAPNMTTLEPTPSPTTPEPTSEPAPSPTTPEPTSEPAPSPTTPEPTPIPTIATSPTILVSATSLITPKSTFLTTTKPVSLLESTKKTIPELDQPPKLRGVLQGHLESSRNDPFLHPDFCCLLPLGFYVLGLFWLLFASVVLILLLSWVGHVKPQALDSGQGAALTTATQTTHLELQRGRQVTVPRAWLLFLRGSLPTFRSSLFLWVRPNGRVGPLVAGRRPSALSQGRGQDLLSTVSIRYSGHSL
notes: Some cells were also transfected with GPIbβ and GP-IX; also called single mutation G233V
B5: GPIbα M239V, full-length, on transfected HEK-293T cells (receptor)
chain: HPICEVSKVASHLEVNCDKRNLTALPPDLPKDTTILHLSENLLYTFSLATLMPYTRLTQLNLDRCELTKLQVDGTLPVLGTLDLSHNQLQSLPLLGQTLPALTVLDVSFNRLTSLPLGALRGLGELQELYLKGNELKTLPPGLLTPTPKLEKLSLANNNLTELPAGLLNGLENLDTLLLQENSLYTIPKGFFGSHLLPFAFLHGNPWLCNCEILYFRRWLQDNAENVYVWKQGVDVKAVTSNVASVQCDNSDKFPVYKYPGKGCPTLGDEGDTDLYDYYPEEDTEGDKVRATRTVVKFPTKAHTTPWGLFYSWSTASLDSQMPSSLHPTQESTKEQTTFPPRWTPNFTLHMESITFSKTPKSTTEPTPSPTTSEPVPEPAPNMTTLEPTPSPTTPEPTSEPAPSPTTPEPTSEPAPSPTTPEPTPIPTIATSPTILVSATSLITPKSTFLTTTKPVSLLESTKKTIPELDQPPKLRGVLQGHLESSRNDPFLHPDFCCLLPLGFYVLGLFWLLFASVVLILLLSWVGHVKPQALDSGQGAALTTATQTTHLELQRGRQVTVPRAWLLFLRGSLPTFRSSLFLWVRPNGRVGPLVAGRRPSALSQGRGQDLLSTVSIRYSGHSL
notes: Some cells were also transfected with GPIbβ and GP-IX; also called single mutation M239V
B6: GPIbα D235Y/M239V, full-length, on transfected HEK-293T cells (receptor)
chain: HPICEVSKVASHLEVNCDKRNLTALPPDLPKDTTILHLSENLLYTFSLATLMPYTRLTQLNLDRCELTKLQVDGTLPVLGTLDLSHNQLQSLPLLGQTLPALTVLDVSFNRLTSLPLGALRGLGELQELYLKGNELKTLPPGLLTPTPKLEKLSLANNNLTELPAGLLNGLENLDTLLLQENSLYTIPKGFFGSHLLPFAFLHGNPWLCNCEILYFRRWLQDNAENVYVWKQGVYVKAVTSNVASVQCDNSDKFPVYKYPGKGCPTLGDEGDTDLYDYYPEEDTEGDKVRATRTVVKFPTKAHTTPWGLFYSWSTASLDSQMPSSLHPTQESTKEQTTFPPRWTPNFTLHMESITFSKTPKSTTEPTPSPTTSEPVPEPAPNMTTLEPTPSPTTPEPTSEPAPSPTTPEPTSEPAPSPTTPEPTPIPTIATSPTILVSATSLITPKSTFLTTTKPVSLLESTKKTIPELDQPPKLRGVLQGHLESSRNDPFLHPDFCCLLPLGFYVLGLFWLLFASVVLILLLSWVGHVKPQALDSGQGAALTTATQTTHLELQRGRQVTVPRAWLLFLRGSLPTFRSSLFLWVRPNGRVGPLVAGRRPSALSQGRGQDLLSTVSIRYSGHSL
notes: Some cells were also transfected with GPIbβ and GP-IX; also called double mutation D235Y/M239V
B7: GPIbα G233V/D235Y, full-length, on transfected HEK-293T cells (receptor)
chain: HPICEVSKVASHLEVNCDKRNLTALPPDLPKDTTILHLSENLLYTFSLATLMPYTRLTQLNLDRCELTKLQVDGTLPVLGTLDLSHNQLQSLPLLGQTLPALTVLDVSFNRLTSLPLGALRGLGELQELYLKGNELKTLPPGLLTPTPKLEKLSLANNNLTELPAGLLNGLENLDTLLLQENSLYTIPKGFFGSHLLPFAFLHGNPWLCNCEILYFRRWLQDNAENVYVWKQVVYVKAMTSNVASVQCDNSDKFPVYKYPGKGCPTLGDEGDTDLYDYYPEEDTEGDKVRATRTVVKFPTKAHTTPWGLFYSWSTASLDSQMPSSLHPTQESTKEQTTFPPRWTPNFTLHMESITFSKTPKSTTEPTPSPTTSEPVPEPAPNMTTLEPTPSPTTPEPTSEPAPSPTTPEPTSEPAPSPTTPEPTPIPTIATSPTILVSATSLITPKSTFLTTTKPVSLLESTKKTIPELDQPPKLRGVLQGHLESSRNDPFLHPDFCCLLPLGFYVLGLFWLLFASVVLILLLSWVGHVKPQALDSGQGAALTTATQTTHLELQRGRQVTVPRAWLLFLRGSLPTFRSSLFLWVRPNGRVGPLVAGRRPSALSQGRGQDLLSTVSIRYSGHSL
notes: Some cells were also transfected with GPIbβ and GP-IX; also called double mutation G233V/D235Y
B8: wild-type GPIbα (SEQ ID NO:11), full-length, on transfected HEK-293T cells (receptor)
chain: HPICEVSKVASHLEVNCDKRNLTALPPDLPKDTTILHLSENLLYTFSLATLMPYTRLTQLNLDRCELTKLQVDGTLPVLGTLDLSHNQLQSLPLLGQTLPALTVLDVSFNRLTSLPLGALRGLGELQELYLKGNELKTLPPGLLTPTPKLEKLSLANNNLTELPAGLLNGLENLDTLLLQENSLYTIPKGFFGSHLLPFAFLHGNPWLCNCEILYFRRWLQDNAENVYVWKQGVDVKAMTSNVASVQCDNSDKFPVYKYPGKGCPTLGDEGDTDLYDYYPEEDTEGDKVRATRTVVKFPTKAHTTPWGLFYSWSTASLDSQMPSSLHPTQESTKEQTTFPPRWTPNFTLHMESITFSKTPKSTTEPTPSPTTSEPVPEPAPNMTTLEPTPSPTTPEPTSEPAPSPTTPEPTSEPAPSPTTPEPTPIPTIATSPTILVSATSLITPKSTFLTTTKPVSLLESTKKTIPELDQPPKLRGVLQGHLESSRNDPFLHPDFCCLLPLGFYVLGLFWLLFASVVLILLLSWVGHVKPQALDSGQGAALTTATQTTHLELQRGRQVTVPRAWLLFLRGSLPTFRSSLFLWVRPNGRVGPLVAGRRPSALSQGRGQDLLSTVSIRYSGHSL
notes: also called wild-type control

The first test addresses T1, von Willebrand factor (VWF) in plasma of reference standards, controls and normal individuals (human, UniProt P04275 764-2813).
T1 construct: In the assays VWF was the multimeric protein in diluted platelet poor plasma; also called PPP (source of VWF); ISTH 2
Put plainly: FACS on transfected HEK-293T cells, ristocetin titration. The procedure:
(§1) For FACS, about 50 μl of a 1:10 dilution of platelet poor plasma (PPP; source of VWF) in assay buffer was added to the plate and serially diluted 1:2 to final dilution of 1:80. ISTH Lot #3 (GTI; Milwaukee, Wis.) was used as a standard and diluted 1:10 in assay buffer and serially diluted 1:2 to a final dilution of 1:320. The plate was then incubated for one hour at room temperature. After the one-hour incubation, the plate was centrifuged again at 1200 rpm for 5 minutes and the supernatant was discarded.
(§2) In some experiments, the PPP was diluted in PBS containing 1% BSA and either 1 mg/ml Ristocetin A (American Biochemical & Pharmaceuticals, Ltd.; Marlton, N.J.) or 1 mg/ml Botrocetin (Sigma Aldrich).
(§3) Fluorescently labeled antibodies (anti-GPIbα; Blood Research Institute) were diluted to a final concentration of 5 μg/ml in assay buffer. Fluorescently labeled anti-VWF polyclonal was also was diluted to a final concentration of 5 μg/ml in assay buffer and added to transfected cells incubated in PPP. Normal rabbit IgG (NRIgG; Pierce) and AP-1 were added at a concentration of 5 μg/ml to transfected cells as negative and positive controls, respectively. The plate was then incubated in the dark for one hour at room temperature. Assay buffer was added to each well to bring the final volume to 150 μl, and FACS was performed using a BD LSRII System (Becton Dickinson). Results are shown in VWF:IbCo units.
As for B1, the binding result was “binds”.

Regarding B2, the binding result is listed as “binds”. As for B3, the binding result was “binds”. As for B4, the binding result is recorded as “binds”. On to B5, for which the binding result is “binds”. Same read-out and setting: under B6 stands “binds”; under B7, “binds”.

In another test the target is T1, von Willebrand factor (VWF) in plasma …. Kind of test: FACS on transfected HEK-293T cells, with ristocetin or botrocetin. On the procedure:
as §1, §2
as §3, with “Results are shown in VWF:IbCo units.” left out
For the molecule B8, the binding result is “binds”.

(Values after US20120003670A1 (BLOOD CENTER RESEARCH FOUNDATION, published 2012).)
